In publication PMC4004530 (Circulation research, 2013):
Like-named read-outs stand apart in the source and are kept apart here. Values belong to the molecule of their own block, whether it stands above or below them.

Experiments:
[1] = target: Cardiac ryanodine receptor (RyR2) in rat ventricular myocytes (rat (endogenous in ventricular myocytes)) (UniProt B0LPN4); assay: FRET or BRET
[2] = target: Cardiac ryanodine receptor (RyR2) in rat ventricular myocytes (rat (endogenous in ventricular myocytes)) (UniProt B0LPN4); assay: FRET or BRET; remark: listed apart in the source
[3] = target: Cardiac ryanodine receptor (RyR2) in rat ventricular myocytes (rat (endogenous in ventricular myocytes), UniProt B0LPN4 1-4955); assay: other fluorescence titration
Sequence of Cardiac ryanodine receptor (RyR2) in rat ventricular myocytes (B0LPN4 whole entry): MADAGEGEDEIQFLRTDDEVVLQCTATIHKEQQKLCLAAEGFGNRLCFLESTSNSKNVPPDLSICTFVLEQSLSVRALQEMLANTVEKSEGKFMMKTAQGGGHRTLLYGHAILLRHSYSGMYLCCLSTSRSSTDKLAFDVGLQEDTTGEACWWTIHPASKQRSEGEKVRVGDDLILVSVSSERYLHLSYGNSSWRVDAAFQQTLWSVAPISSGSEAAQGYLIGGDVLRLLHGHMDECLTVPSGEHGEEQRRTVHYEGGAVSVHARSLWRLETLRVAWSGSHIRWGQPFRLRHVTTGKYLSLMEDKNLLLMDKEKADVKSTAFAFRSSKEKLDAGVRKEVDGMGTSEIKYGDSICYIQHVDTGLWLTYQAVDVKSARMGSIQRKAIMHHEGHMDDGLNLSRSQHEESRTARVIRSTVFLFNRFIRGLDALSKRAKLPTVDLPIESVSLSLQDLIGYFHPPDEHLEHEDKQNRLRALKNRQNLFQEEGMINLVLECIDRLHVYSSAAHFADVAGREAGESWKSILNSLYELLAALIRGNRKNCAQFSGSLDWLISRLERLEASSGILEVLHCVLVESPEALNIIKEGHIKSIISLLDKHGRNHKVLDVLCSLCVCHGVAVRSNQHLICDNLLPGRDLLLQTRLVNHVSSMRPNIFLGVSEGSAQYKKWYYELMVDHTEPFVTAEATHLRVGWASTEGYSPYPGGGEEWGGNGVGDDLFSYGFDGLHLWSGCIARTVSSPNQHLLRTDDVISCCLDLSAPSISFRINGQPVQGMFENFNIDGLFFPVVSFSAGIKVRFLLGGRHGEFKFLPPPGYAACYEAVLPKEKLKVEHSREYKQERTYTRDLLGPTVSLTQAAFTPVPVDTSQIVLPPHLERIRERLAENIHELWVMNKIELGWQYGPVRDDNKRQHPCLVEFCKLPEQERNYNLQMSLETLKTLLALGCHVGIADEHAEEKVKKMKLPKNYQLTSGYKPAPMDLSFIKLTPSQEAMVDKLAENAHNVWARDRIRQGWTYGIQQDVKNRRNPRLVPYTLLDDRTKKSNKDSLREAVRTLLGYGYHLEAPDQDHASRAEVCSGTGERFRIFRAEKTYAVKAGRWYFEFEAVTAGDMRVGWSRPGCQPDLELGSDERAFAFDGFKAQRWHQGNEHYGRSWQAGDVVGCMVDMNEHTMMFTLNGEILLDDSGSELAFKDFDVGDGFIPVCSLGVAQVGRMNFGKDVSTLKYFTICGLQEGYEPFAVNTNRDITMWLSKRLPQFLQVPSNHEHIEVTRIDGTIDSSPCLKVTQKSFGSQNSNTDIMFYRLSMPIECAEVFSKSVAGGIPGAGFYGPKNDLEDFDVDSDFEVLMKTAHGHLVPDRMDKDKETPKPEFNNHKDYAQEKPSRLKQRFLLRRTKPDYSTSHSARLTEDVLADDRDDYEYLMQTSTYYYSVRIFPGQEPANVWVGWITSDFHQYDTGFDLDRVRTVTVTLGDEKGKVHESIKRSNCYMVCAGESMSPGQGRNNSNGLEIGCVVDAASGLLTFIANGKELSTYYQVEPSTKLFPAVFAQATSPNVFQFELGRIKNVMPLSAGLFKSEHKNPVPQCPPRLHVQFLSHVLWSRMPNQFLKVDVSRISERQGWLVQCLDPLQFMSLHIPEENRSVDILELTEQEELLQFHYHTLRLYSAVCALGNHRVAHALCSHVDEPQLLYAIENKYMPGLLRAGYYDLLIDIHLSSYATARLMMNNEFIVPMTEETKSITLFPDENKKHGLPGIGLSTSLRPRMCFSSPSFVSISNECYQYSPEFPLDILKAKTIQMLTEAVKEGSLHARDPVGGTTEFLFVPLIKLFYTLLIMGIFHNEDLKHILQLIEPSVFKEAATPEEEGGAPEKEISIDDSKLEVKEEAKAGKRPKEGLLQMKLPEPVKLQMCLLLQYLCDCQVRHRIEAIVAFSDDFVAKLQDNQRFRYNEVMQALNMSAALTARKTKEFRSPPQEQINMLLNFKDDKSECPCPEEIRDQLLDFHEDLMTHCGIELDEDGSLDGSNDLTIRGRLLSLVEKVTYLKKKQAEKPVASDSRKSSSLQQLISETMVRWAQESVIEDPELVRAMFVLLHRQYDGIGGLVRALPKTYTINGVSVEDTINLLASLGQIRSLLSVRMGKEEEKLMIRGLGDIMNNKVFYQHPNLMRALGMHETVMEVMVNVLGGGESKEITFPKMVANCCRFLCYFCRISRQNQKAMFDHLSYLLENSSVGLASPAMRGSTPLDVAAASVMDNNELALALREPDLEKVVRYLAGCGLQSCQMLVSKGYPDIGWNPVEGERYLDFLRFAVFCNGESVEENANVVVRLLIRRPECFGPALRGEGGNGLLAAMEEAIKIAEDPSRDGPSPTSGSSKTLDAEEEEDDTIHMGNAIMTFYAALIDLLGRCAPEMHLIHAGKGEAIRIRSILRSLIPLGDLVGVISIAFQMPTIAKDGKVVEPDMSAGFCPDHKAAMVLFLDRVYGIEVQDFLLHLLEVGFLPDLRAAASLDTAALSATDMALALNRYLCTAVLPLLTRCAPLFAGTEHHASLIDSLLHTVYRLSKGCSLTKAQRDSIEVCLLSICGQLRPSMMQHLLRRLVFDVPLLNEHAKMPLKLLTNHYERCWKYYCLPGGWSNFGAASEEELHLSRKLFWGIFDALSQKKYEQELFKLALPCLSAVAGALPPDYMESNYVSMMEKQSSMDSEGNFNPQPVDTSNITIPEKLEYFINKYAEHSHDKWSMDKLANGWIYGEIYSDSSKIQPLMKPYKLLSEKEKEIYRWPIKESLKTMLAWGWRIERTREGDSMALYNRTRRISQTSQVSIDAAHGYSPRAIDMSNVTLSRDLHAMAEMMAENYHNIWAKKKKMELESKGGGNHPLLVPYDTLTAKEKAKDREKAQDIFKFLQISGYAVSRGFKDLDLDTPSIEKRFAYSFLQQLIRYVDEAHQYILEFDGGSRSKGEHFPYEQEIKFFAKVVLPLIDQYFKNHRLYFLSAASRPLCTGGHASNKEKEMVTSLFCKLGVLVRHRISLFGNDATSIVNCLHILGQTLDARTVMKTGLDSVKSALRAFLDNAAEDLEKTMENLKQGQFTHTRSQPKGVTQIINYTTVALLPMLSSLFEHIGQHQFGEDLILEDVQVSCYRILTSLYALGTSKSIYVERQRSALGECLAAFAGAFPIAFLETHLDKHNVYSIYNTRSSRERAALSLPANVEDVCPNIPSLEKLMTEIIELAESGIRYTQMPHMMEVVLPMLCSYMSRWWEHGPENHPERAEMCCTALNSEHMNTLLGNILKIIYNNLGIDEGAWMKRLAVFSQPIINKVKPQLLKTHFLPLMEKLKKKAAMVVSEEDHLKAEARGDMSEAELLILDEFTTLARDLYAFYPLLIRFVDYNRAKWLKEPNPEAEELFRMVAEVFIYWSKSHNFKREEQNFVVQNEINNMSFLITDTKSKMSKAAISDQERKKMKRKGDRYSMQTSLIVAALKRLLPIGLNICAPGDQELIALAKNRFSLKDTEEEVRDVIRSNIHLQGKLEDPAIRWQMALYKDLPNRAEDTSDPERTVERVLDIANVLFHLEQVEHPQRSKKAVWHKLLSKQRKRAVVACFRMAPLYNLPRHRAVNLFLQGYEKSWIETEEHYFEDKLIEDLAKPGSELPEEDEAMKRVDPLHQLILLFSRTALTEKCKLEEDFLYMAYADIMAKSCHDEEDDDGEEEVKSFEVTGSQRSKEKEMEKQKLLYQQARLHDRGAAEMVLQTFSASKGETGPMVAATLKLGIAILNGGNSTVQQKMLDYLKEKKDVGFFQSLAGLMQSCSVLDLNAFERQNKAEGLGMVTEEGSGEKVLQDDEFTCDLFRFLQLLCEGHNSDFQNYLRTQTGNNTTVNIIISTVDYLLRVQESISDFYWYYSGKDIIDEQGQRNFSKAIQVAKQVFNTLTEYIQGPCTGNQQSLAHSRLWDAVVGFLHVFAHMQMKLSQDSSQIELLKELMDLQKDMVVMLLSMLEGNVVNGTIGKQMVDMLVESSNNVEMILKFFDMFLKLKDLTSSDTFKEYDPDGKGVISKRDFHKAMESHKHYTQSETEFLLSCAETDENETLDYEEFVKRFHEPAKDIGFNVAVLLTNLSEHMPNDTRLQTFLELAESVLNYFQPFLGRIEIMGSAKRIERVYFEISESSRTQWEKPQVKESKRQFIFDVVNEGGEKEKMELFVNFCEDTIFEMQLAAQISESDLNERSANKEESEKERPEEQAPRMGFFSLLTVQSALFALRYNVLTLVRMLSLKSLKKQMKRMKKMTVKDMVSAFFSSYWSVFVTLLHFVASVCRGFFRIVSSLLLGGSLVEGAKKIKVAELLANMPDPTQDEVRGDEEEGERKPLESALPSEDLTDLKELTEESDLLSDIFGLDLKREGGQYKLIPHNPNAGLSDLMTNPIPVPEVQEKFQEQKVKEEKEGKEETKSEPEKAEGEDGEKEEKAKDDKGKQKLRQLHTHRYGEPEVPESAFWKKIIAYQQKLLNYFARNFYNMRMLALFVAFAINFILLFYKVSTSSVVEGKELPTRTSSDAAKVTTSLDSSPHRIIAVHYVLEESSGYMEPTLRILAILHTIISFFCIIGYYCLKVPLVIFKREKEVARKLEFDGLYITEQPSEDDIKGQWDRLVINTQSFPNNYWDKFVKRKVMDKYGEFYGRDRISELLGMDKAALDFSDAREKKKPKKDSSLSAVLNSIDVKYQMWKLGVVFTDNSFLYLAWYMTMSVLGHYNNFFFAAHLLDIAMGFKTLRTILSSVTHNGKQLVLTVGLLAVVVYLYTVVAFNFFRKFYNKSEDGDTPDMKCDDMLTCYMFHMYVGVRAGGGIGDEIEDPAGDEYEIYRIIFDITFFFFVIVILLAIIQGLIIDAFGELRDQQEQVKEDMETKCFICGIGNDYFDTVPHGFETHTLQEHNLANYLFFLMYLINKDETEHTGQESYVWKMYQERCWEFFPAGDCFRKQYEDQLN

Sequence of Cardiac ryanodine receptor (RyR2) in rat ventricular myocytes (rat (endogenous in ventricular myocytes)) (B0LPN4 whole entry): as above

- Kd [1]: 10 nM
- Kd [2]: 12 nM
Molecule: Fluorescent calmodulin (CaM labeled with Alexa Fluor 568) (from UniProt P0DP23 1-149) (natural protein)

- Kd [3]: 0.8 ± 0.1 nM
B1: Fluorescent FKBP12.6 (FK506 binding protein 12.6 labeled with Alexa Fluor 488) (natural protein)
chain: MGVEIETISPGDGRCFPKKGQTAVVHYTGMLQNGKKFDSSRDRNKPFKFRIGKQEVIKGFEEGAAQMSLGQRAKLTITPDVAYGATGHPGVIPPNATLIFDVELLNLE
modifications: Alexa Fluor 488 label (site not stated)
